The text below walks through data of patent US7297515 (MYRIAD GENETICS, dated 2007).

In test [1] the target is T1, zinc finger protein 202, alt. transcript beta (ZNF202b), bait fragment amino acids 1-199 (human, UniProt P04386 1-147; O95125 1-199).
T1 construct: also called ZNF202beta; ZNF202 m1
The test is described as follows: yeast two-hybrid; prey fragment isolated with ZNF202b bait 1-199. An excerpt:
(§1) In these yeast cells, the bait was produced as a C-terminal fusion protein with the DNA binding domain of the transcription factor Gal4 (amino acids 1 to 147). Prey libraries were transformed into the yeast strain BK100 (genotype of this strain: MATa trp1-901 leu2-3,112 ura3-52 his3-200 gal4Δ gal80 LYS2::GAL-HIS3 GAL2-ADE2 met2::GAL7-lacZ), and selected for the ability to drive leucine synthesis. In these yeast cells, each cDNA was expressed as a fusion protein with the transcription activation domain of the transcription factor Gal4 (amino acids 768 to 881) and a 9 amino acid hemagglutinin epitope tag. PNY200 cells (MATα mating type), expressing the bait, were then mated with BK100 cells (MATa mating type), expressing prey proteins from a prey library. The resulting diploid yeast cells expressing proteins interacting with the bait protein were selected for the ability to synthesize tryptophan, leucine, histidine, and adenine. DNA was prepared from each clone, transformed by electroporation into *E. coli* strain KC8 (Clontech KC8 electrocompetent cells, Catalog No. C2023-1), and the cells were selected on ampicillin-containing plates in the absence of either tryptophane (selection for the bait plasmid) or leucine (selection for the library plasmid). DNA for both plasmids was prepared and sequenced by the dideoxynucleotide chain termination method. […]

In test [2] the target is T2, novel protein PN1851, fragment residues 14-369 (human, UniProt P04386 768-881 (Saccharomyces cerevisiae entry)).
T2 construct: range 768-881
The test is described as follows: yeast two-hybrid search, bait ZNF202 33-118. The source says: The new construct was selected directly in the yeast strain PNY200 for its ability to drive tryptophane synthesis (genotype of this strain: MATα trp1-901 leu2-3, 112 ura3-52 his3-200 ade2 gal4Δ gal80). In these yeast cells, the bait was produced as a C-terminal fusion protein with the DNA binding domain of the transcription factor Gal4 (amino acids 1 to 147). Prey libraries were transformed into the yeast strain BK100 (genotype of this strain: MATa trp1-901 leu2-3,112 ura3-52 his3-200 gal4Δ gal80 LYS2::GAL-HIS3 GAL2-ADE2 met2::GAL7-lacZ), and selected for the ability to drive leucine synthesis. In these yeast cells, each cDNA was expressed as a fusion protein with the transcription activation domain of the transcription factor Gal4 (amino acids 768 to 881) and a 9 amino acid hemagglutinin epitope tag. PNY200 cells (MATα mating type), expressing the bait, were then mated with BK100 cells (MATa mating type), expressing prey proteins from a prey library. The resulting diploid yeast cells expressing proteins interacting with the bait protein were selected for the ability to synthesize tryptophan, leucine, histidine, and adenine. […]

Test [3] has as its target T3, zinc finger protein 202, alt. transcript beta (ZNF202b), bait fragment amino acids 1-224 (human, UniProt P04386 1-147; O95125 1-224).
T3 construct: also called ZNF202beta; ZNF202 m1
The test is described as follows: yeast two-hybrid; prey fragment isolated with ZNF202b bait 1-224.
Text: as §1

B1: novel protein PN7745, prey fragment amino acids 44-171 (other, not shown: small tags and cut ends)
chain: ANFNQSGNIADSSLSFTFTNSSNGPNLITTQTNSQALSQPIASSNVHDNFMNNEITASKIDDGNNSKPLSPGWTDQTAYNAFGITTGMFNTTTMDDVYNYLFDDEDTPPNPKKENAADAESFRQRFRWFCYSEVAGPRKALSQLWELCNQWLRPDIHTKEQILELLVFEQFLTILPGEIRIWVKSQHPESSEEVVTLIEDLTQILEEKDPVSEDSTVSQEENSKEDKMVTVCPNTESCESAL
notes: range 768-881; Yeast two-hybrid prey
On to B1, for which, in test [1], the binding result is “binds”.

B2: zinc finger protein 202, alt. transcript beta (ZNF202b), bait fragment amino acids 33-118 (other, UniProt P04386 1-147, looked up)
chain: MKLLSSIEQACDICRLKKLKCSKEKPKCAKCLKNNWECRYSPKTKRSPLTRAHLTEVESRLERLEQLFLLIFPREDLDMILKMDSLQDIKALLTGLFVQDNVNKDAVTDRLASVETDMPLTLRQHRISATSSSEESSNKGQRQLTVSSVLQRDDPVLETSHQNFRRFRYQEAASPREALIRLRELCHQWLRPERRTKEQILELLVLEQFLTVLPGELQSWVRGQRPESGEEAV
notes: also called ZNF202beta; ZNF202 m1
As for B2, the binding result in test [2] was “binds”.

B3: novel protein PN7745, prey fragment amino acids 2-156 (other, not shown: small tags and cut ends)
chain: ANFNQSGNIADSSLSFTFTNSSNGPNLITTQTNSQALSQPIASSNVHDNFMNNEITASKIDDGNNSKPLSPGWTDQTAYNAFGITTGMFNTTTMDDVYNYLFDDEDTPPNPKKEQAVVPLNKMTAISPEPQTLASTEQNEVPRVVTSGEQEAILRGNAADAESFRQRFRWFCYSEVAGPRKALSQLWELCNQWLRPDIHTKEQILELLVFEQFLTILPGEIRIWVKSQHPESSEEVVTLIEDLTQILEEKDPVSEDSTVSQEENSKEDK
notes: as for B1
As for B3, the binding result in test [3] is listed as “binds”.

B4: novel protein PN7745, prey fragment amino acids 2-171 (other, not shown: small tags and cut ends)
chain: ANFNQSGNIADSSLSFTFTNSSNGPNLITTQTNSQALSQPIASSNVHDNFMNNEITASKIDDGNNSKPLSPGWTDQTAYNAFGITTGMFNTTTMDDVYNYLFDDEDTPPNPKKEQAVVPLNKMTAISPEPQTLASTEQNEVPRVVTSGEQEAILRGNAADAESFRQRFRWFCYSEVAGPRKALSQLWELCNQWLRPDIHTKEQILELLVFEQFLTILPGEIRIWVKSQHPESSEEVVTLIEDLTQILEEKDPVSEDSTVSQEENSKEDKMVTVCPNTESCESAL
notes: as for B1
Take B4: the binding result in test [3] and in test [1] was “binds” in each case.
